In paper PMC11429203 (Biomimetics, 2024) one finds Kd data, which are given here for two molecules.

The experiment concerns the target T1, human FGFR2 protein (His-tag) residue 403-822 (human, UniProt P21802-3 403-822).
T1 construct: fibroblast growth factor receptor 2 (FGFR2), human, residues 403-822 (cytoplasmic part with the kinase domain); docking used residues 461-763 of PDB 7OZY, another construct; also called FGFR2 kinase domain; FGFR2 protein kinase domain; source: bought: Thermo Fisher Scientific
In words: SPR; FGFR2 (10 µg/mL) coupled through NHS/EDAC to 11-mercaptoundecanoic acid on gold chips; peptides flowed at 50 nM, 100 nM, 1 µM, 50 µM and 100 µM in 1X PBS, 30 µL/min, 2000 s; KD by non-linear regression, mean of three runs. To be noted: both partners purified.

T1 sequence (P21802 402-821): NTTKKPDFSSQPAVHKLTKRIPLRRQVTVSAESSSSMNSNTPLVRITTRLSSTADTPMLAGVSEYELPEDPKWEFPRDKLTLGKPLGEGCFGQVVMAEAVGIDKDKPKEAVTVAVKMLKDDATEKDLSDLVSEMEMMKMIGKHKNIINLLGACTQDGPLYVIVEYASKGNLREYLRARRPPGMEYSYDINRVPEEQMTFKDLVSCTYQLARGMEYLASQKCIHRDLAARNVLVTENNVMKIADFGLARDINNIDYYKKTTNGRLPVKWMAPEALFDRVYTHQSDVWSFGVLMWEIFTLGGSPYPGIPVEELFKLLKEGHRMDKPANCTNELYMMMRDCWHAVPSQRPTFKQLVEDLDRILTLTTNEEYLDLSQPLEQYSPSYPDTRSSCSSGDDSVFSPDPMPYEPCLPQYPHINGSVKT

B1: ACSAGLPHVLTPEAGATGASCA (Trimer-pep) (peptide)
peptide: ACSAGLPHVLTPEAGATGASCA
notes: Newly designed fusion peptide of 22 residues; also called fusion trimer peptide; source: synthetic peptide, custom-ordered from GenScript
B1 registered an equilibrium dissociation constant (Kd) of 7.53 µM.

B2: ACSAG (A-pep) (peptide)
peptide: ACSAG
notes: Unconjugated peptide (no DOX, no fluorescein) in the SPR and antibody-staining experiments; also called ACSAG peptide; source: synthetic peptide, custom-ordered from GenScript
In turn, B2 gave a Kd of 14.1 µM.
